Experimental data reported in patent publication US20150329595A1 (NORTH CAROLINA STATE UNIVERSITY, published 2015).

B1: AD:TAL11-352 prey (activation domain fused to full-length TGMV AL1) (other, Tomato golden mosaic virus, UniProt P03567 1-352, looked up, not shown: large carriers)
chain: MPSHPKRFQINAKNYFLTYPQCSLSKEESLSQLQALNTPINKKFIKICRELHEDGQPHLHVLIQFEGKYCCQNQRFFDLVSPTRSAHFHPNIQRAKSSSDVKTYIDKDGDTLVWGEFQVDGRSARGGCQTSNDAAAEALNASSKEEALQIIREKIPEKYLFQFHNLNSNLDRIFDKTPEPWLPPFHVSSFTNVPDEMRQWAENYFGKSSAARPERPISIIIEGDSRTGKTMWARSLGPHNYLSGHLDLNSRVYSNKVEYNVIDDVTPQYLKLKHWKELIGAQRDWQTNCKYGKPVQIKGGIPSIVLCNPGEGASYKVFLDKEENTPLKNWTFHNAKFVFLNSPLYQSSTQSS
notes: positive prey control; also called pNSB970

How the values were obtained:
[1] = biological target: T1, GUS bait (LexA DBD:beta-glucuronidase fusion) (E. coli, UniProt P0A7C2 1-202; P05804 1-603); assay: yeast two-hybrid growth
T1 construct: negative control bait; also called pNSB1120

[2] = biological target: B1; assay: yeast two-hybrid growth

Row | Binder | binding result [1] | binding result [2]
1 | B1 | no binding | –
2 | TAL11-130 bait (LexA DBD fused to the first 130 amino acids of TGMV AL1) (other, E. coli;Tomato golden mosaic virus, UniProt P0A7C2 1-202, looked up, yeast two-hybrid bait; also called NT; Rep1-130) MKALTARQQEVFDLIRDHISQTGMPPTRAEIAQRLGFRSPNAAEEHLKALARKGVIEIVSGASRGIRLLQEEEEGLPLVGRVAAGEPLLAQQHIEGHYQVDPSLFKPNADFLLRVSGMSMKDIGIMDGDLLAVHKTQDVRNGQVVVARIDDEVTVKRLKKQGNKVELLPENSEFKPIVVDLRQQSFTIEGLAVGVIRNGDWLMPSHPKRFQINAKNYFLTYPQCSLSKEESLSQLQALNTPINKKFIKICRELHEDGQPHLHVLIQFEGKYCCQNQRFFDLVSPTRSAHFHPNIQRAKSSSDVKTYIDKDGDTLVWGEFQVDGRSARGGCQT | – | no binding
